This is an account of results in US20030199671A1, “Binding molecules for Fc-region polypeptides” (priority 2001, published 2003).

Starred links: 1 amine or outer side, 2 acyl side, 3 side chain; linkers in the order of their positions; H or OH if unused. Primed or numbered codes have the meaning given here. code X″ = C-terminal linker unit, -NH-(CH2CH2O)2-CH2CH2- (X-NH2 = -NH-(CH2CH2O)2-CH2CH2-NH2), C(COCCOCC[*:2])N[*:1]; Su = not defined here

For assay [1], the target named is human IgG (unfractionated, polyclonal). The experiment in a line: filterplate; 25 mg human IgG applied per ml resin.
Assay [2] shares this target. The experiment in a line: total dynamic capacity.

B1: DX878 (peptide)
peptide: Ac-GDDHMCVYTTWGELIWCDNHEPG-{code X″-Su-code X″-NH2}
modifications: not fully specified (bridges); printed as Ac-GDDHMCVYTTWGELIWCDNHEPG-X-Su-X-NH2; cysteine pairing not given here; reading uncertain
In turn, B1 registered a Static Cap. in assay [1] of 23 mg/mL. The same molecule registered a Dynamic Cap. in assay [2] of 9 mg/mL.

B2: DX877 (peptide)
peptide: Ac-GDDHMCVYTTWGELIWCDNHEPGPEG-{NH‑(CH2CH2O)2‑CH2CH2‑NH2}
modifications: not fully specified (bridges); printed as Ac-GDDHMCVYTTWGELIWCDNHEPGPEG-X-NH2; cysteine pairing not given here
Turning to B2, in assay [1], the Static Cap. came out at 20 mg/mL. In assay [2], the Dynamic Cap. worked out at 8 mg/mL.
